± gives the standard deviation.
Test: protein stability index of a GFP-peptide fusion (GPS, HEK-293T) (PSI 1-6); higher = more stable
[1] = treatment: DMSO, c terminus: a fixed tail appended
[2] = treatment: MLN4924 1 uM, 8 h, c terminus: a fixed tail appended
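Also: 24-mer peptide tiles fused after GFP, lentivirally expressed, FACS-sorted into six equal bins by GFP/DsRed ratio, decoded by Illumina sequencing, PSI is the read-weighted mean bin number.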

Row | Sequence | protein stability index [1] | protein stability index [2] | protein stability index (treatment: DMSO, c terminus: native) | protein stability index (treatment: MLN4924 1 uM, 8 h, c terminus: native)
1 | CSSKRSSIPLMGFEFEVRVCDSCH [WDFY2] | 2.24 ± 0.39 | 2.15 ± 0.34 | – | –
2 | CTNIFYEEENPGGCEDEYLVNPTC [ZER1] | 4.31 ± 0.2 | 4.36 ± 0.33 | – | –
3 | CVVCGDKSSGKHYGQFTCEGCKSF [NR2F2] | 4.76 ± 0.4 | 4.99 ± 0.14 | – | –
4 | DAASVYTLPAGADFLMCYSVAEGY [CASP6] | 2.34 ± 0.22 | 2.33 ± 0.25 | – | –
5 | DAGEVSYLPRDFSTYRPLPDPSVW [MYORG] | 3.29 ± 0.17 | 3.27 ± 0.38 | – | –
6 | DAVPPGMESLISAPLVKTLEKEEE [CDC25B] | 5.44 ± 0.21 | 5.58 ± 0.33 | – | –
7 | DDAVRVLREIVHKPGPITLTVAKC [DVL3] | 2.87 ± 0.16 | 2.9 ± 0.17 | – | –
8 | DECEKAYFYMSCLVKHKRIHSREK [ZNF649] | 2.69 ± 0.14 | 2.9 ± 0.35 | – | –
9 | DFDYNAIDNANRILGPAYFVTYVF [PKD2L1] | 2.73 ± 0.6 | 2.66 ± 0.59 | – | –
10 | DFLETPELTSTMLVPASWWILNN [NECAB1] | – | – | 2.21 ± 0.35 | 2.18 ± 0.25
11 | DGIDRWIKEIDEHAPGVPRILVGN [RAB40C] | 3.81 ± 0.19 | 3.59 ± 0.26 | – | –
12 | DGYGMTPLLSASVTGHTNIVDFLT [FEM1C] | 3.01 ± 0.27 | 3.1 ± 0.28 | – | –
13 | DIWSKSNYQVFQKVTDHATTALLH [MED27] | 2.44 ± 0.27 | 2.34 ± 0.31 | – | –
14 | DKILALVPETIHDELQQSFQKSHN [PRIM1] | 3.85 ± 0.42 | 3.93 ± 0.47 | – | –
15 | DLEMKEEEEISETGELVGPFVSAM [ZBED2] | 5.29 ± 0.27 | 5.27 ± 0.12 | – | –
16 | DLLLWIQKHTEVETVDLVLKLKNK [DENND6A] | 2.57 ± 0.63 | 2.21 ± 0.45 | – | –
17 | DLRINLWNFEITNQSFNIVDIKPA [PPP2R2B] | 2.47 ± 0.86 | 2.4 ± 0.07 | – | –
18 | DLTFAPDGSLILVSASRDKTLRVW [WSB1] | 2.32 ± 0.31 | 2.37 ± 0.099 | – | –
19 | DLVDSLKLAVFMWLMTYVGAVFNG [RTN3] | 3.02 ± 0.59 | 3.2 ± 0.051 | – | –
20 | DLVNRTPWKKCCFSGDGEYIVAGS [RBBP5] | 2.64 ± 0.25 | 2.37 ± 0.21 | – | –
21 | DPEVLEAVGDRQDGLREQLQAPVP [PBXIP1] | 5.43 ± 0.27 | 5.4 ± 0.24 | – | –
22 | DPGPEPEEEPGVRNGMASEGLNSS [PSD2] | 5.58 ± 0.25 | 5.44 ± 0.35 | – | –
23 | DPLSTNYSLAPNTPINQNVSLHQA [NFE2L1] | 4.25 ± 0.45 | 4.46 ± 0.16 | – | –

Row | Sequence | protein stability index [1] | protein stability index [2] | protein stability index (treatment: DMSO, c terminus: native) | protein stability index (treatment: MLN4924 1 uM, 8 h, c terminus: native)
24 | DQDTLAPLPHPGAAPWPMAFPYQY [DVL3] | 3.15 ± 0.29 | 3.12 ± 0.25 | – | –
25 | DQEIKFFRCLFEAEITQIQSHISD [KRT71] | 2.25 ± 0.36 | 2.34 ± 0.77 | – | –
26 | DQTTSEETVGGAILDQTTSEDAVG [HDAC6] | 5.54 ± 0.2 | 5.54 ± 0.26 | – | –
27 | DRGPKGEKGEKGDRAGDASKDILL [SCARA5] | 5.35 ± 0.27 | 4.69 ± 0.49 | – | –
28 | DRNTKRDVTLEASRESSKPRAVLK [PPP2R2C] | 4.62 ± 0.23 | 4.79 ± 0.17 | – | –
29 | DRVLNYTSWSQHCPWEPQKQPPWE [SPAG8] | 2.87 ± 0.2 | 2.96 ± 0.15 | – | –
30 | DSDNSGGGGGGGGGGGGGGGTSSN [ANKRD17] | 5.39 ± 0.31 | 5.58 ± 0.22 | – | –
31 | DSKPESALGAPSKSPSSPQAAFTQ [TBX5] | 5.18 ± 0.36 | 5.21 ± 0.19 | – | –
32 | DSSCSGQPIHLWQFLKELLLKPHS [SPDEF] | 2.47 ± 0.21 | 2.46 ± 0.16 | – | –
33 | DSTNVEAAFQTILTEIYRIVSQKQ [RAB11A] | 2.26 ± 0.35 | 2.46 ± 0.034 | – | –
34 | DVEDLQRDKARLLREKVEFLRSLR [NFE2L1] | 3.33 ± 0.48 | 3.18 ± 0.34 | – | –
35 | DVHELFLQMAVLVEKQADTLNVIE [STX11] | 2.2 ± 0.16 | 2.27 ± 0.27 | – | –
36 | DVKTNVQLLKGRVDNISTLDSEIK [CD207] | 3.74 ± 0.48 | 4.01 ± 0.3 | – | –
37 | DVMLEELSLLTNRGSKMFKLRQMR [MYOZ1] | 2.48 ± 0.19 | 2.67 ± 0.29 | – | –
38 | DVQLGDIILTATDGLFDNMPDYMI [PPTC7] | 2.58 ± 0.33 | 2.62 ± 0.42 | – | –
39 | DWASNKVMFKIGDLGHVTRISSPQ [WEE1] | 2.53 ± 0.25 | 2.64 ± 0.41 | – | –
40 | EADASHCIQQILEAVLHCHQMGVV [CAMK2A] | 3.3 ± 0.15 | 2.86 ± 0.71 | – | –
41 | EAEQSLRNLEDIHMSLEKDIAAMT [TEKT4] | 4.58 ± 0.25 | 4.8 ± 0.14 | – | –
42 | EAITDEERAPTATFHDSKHNIVHV [WDFY2] | 4.72 ± 0.13 | 4.63 ± 0.3 | – | –
43 | EAKALLKERQKKDNHNLIERRRRF [TFE3] | 4.21 ± 0.32 | 4.38 ± 0.2 | – | –
44 | EANADLEVKIRDWHLKQSPASPER [KRT13] | 4.79 ± 0.15 | 4.97 ± 0.27 | – | –
45 | EAPDSLNGPLGPSEASIASNLQAM [SMG5] | 4.99 ± 0.21 | 4.91 ± 0.25 | – | –
46 | EAQHGPHSAVARISRAQYNALTLT [STX11] | 3.32 ± 0.11 | 3.47 ± 0.31 | – | –

Row | Sequence | protein stability index [1] | protein stability index [2] | protein stability index (treatment: DMSO, c terminus: native) | protein stability index (treatment: MLN4924 1 uM, 8 h, c terminus: native)
47 | ECAMETTEEQTRQERQGPAKPEVL [NECAB1] | 5.57 ± 0.33 | 5.6 ± 0.23 | – | –
48 | ECGKTFIYNSHLVVHQRVHSGEKP [ZNF232] | 2.96 ± 0.37 | 2.9 ± 0.49 | – | –
49 | ECLKRQGQREPGSLSRNNSFRRNV [FBXO34] | 4.11 ± 0.26 | 4.22 ± 0.18 | – | –
50 | EDDDEEDTDKLLNSASDPSLKDGL [PSD2] | 5.51 ± 0.3 | 5.46 ± 0.33 | – | –
51 | EDDPLLDAQLLPHHSLQAHFRPRF [TMEM192] | 3.57 ± 0.35 | 3.53 ± 0.15 | – | –
52 | EDGPGKEEAPELDEAELDYLMDVL [SERTAD1] | 5.08 ± 0.12 | 5.01 ± 0.21 | – | –
53 | EDHGLVTCSADHLIILWKNGERES [WDR41] | 3.27 ± 0.28 | 2.74 ± 0.21 | – | –
54 | EDLLQQMLERRYTPYPNLYPDQSP [CLCN6] | 3.28 ± 0.24 | 3.29 ± 0.15 | – | –
55 | EDQPINLCDKLPPATALGTASYPS [NOL4L] | 4.6 ± 0.19 | 4.62 ± 0.084 | – | –
56 | EDYSRDEDHIAHIIELLGSIPRHF [SRPK2] | 2.62 ± 0.13 | 2.85 ± 0.31 | – | –
57 | EEAAMQKCLVTEAQTLLRLSGVQR [RSAD1] | 3.51 ± 0.15 | 3.52 ± 0.35 | – | –
58 | EEEKLKAEEIRIKGKYNISSEDYR [KCNK9] | 5.21 ± 0.19 | 5.29 ± 0.13 | – | –
59 | EEEPTGAGLNKDKETEERTDGERV [SDE2] | 5.84 ± 0.13 | 5.61 ± 0.37 | – | –
60 | EEGLADEEKKLRRSQHARKETEFL [STK38L] | 5.33 ± 0.08 | 5.2 ± 0.39 | – | –
61 | EEKPQENKTWREQYLRLPDAPEQR [ELOA2] | 5.18 ± 0.28 | 4.88 ± 0.11 | – | –
62 | EEMAVVPQGLFRGGKSGELEQEEE [CHGA] | 5.63 ± 0.27 | 5.62 ± 0.18 | – | –
63 | EEPQTVPEARSRDATPPVSPINME [JUNB] | 5.38 ± 0.29 | 5.46 ± 0.27 | – | –
64 | EEVTRLGAQVKELEEKCQQPASEL [TRIM15] | 5.5 ± 0.12 | 5.52 ± 0.13 | – | –
65 | EEWNALQSVENCPEDLAQLEELID [RPAIN] | 5.14 ± 0.29 | 5.29 ± 0.26 | – | –
66 | EFAEMVEREEEDDALDSEGRDSEG [KCNG1] | 5.68 ± 0.22 | 5.62 ± 0.29 | – | –
67 | EFAGSSPQSSKSTVVKSLIDNSSE [FAN1] | 5.08 ± 0.27 | 5.28 ± 0.12 | – | –
68 | EFLLDLGHHERSIMTDLYYLSQTD [FUT8] | 2.2 ± 0.36 | 2.47 ± 0.16 | – | –
69 | EGELGEYRQKLLMFLEISSYYDPG [VPS39] | 2.19 ± 0.22 | 2.18 ± 0.28 | – | –

Row | Sequence | protein stability index [1] | protein stability index [2] | protein stability index (treatment: DMSO, c terminus: native) | protein stability index (treatment: MLN4924 1 uM, 8 h, c terminus: native)
70 | EGSIWRGAQMEKEWARALETRDWG [ZSWIM9] | 3.37 ± 0.3 | 3.42 ± 0.21 | – | –
71 | EGYVWRGSQLEDQALRGLEGYTWR [ZSWIM9] | 2.7 ± 0.22 | 2.67 ± 0.18 | – | –
72 | EHQRSHTGERPHQCIECGKSFNRH [ZSCAN9] | 3.88 ± 0.41 | 4.17 ± 0.41 | – | –
73 | EIRRKEKEAVLAMEKKSKPKNSVW [RIT1] | 4.12 ± 0.17 | 4.29 ± 0.38 | – | –
74 | EKALKKNVKLQELINHKKAEDTEK [CEP70] | 4.85 ± 0.34 | 5.07 ± 0.2 | – | –
75 | EKALQVLVDQSKKANSPLKGHERT [VPS39] | 4.06 ± 0.21 | 4.48 ± 0.26 | – | –
76 | EKESTELRAEEIETRVTSGSMEAL [PPFIA4] | 5.53 ± 0.17 | 5.45 ± 0.27 | – | –
77 | EKFDIVKKWGINTYKCTKQLLSER [ARFIP2] | 2.78 ± 0.37 | 2.79 ± 0.19 | – | –
78 | EKNIILEEKIQVLQQQNEDLKARI [MTUS2] | 4.03 ± 0.24 | 4.04 ± 0.23 | – | –
79 | EKNNHRAKDLRAPPEQGKIFIARR [SOAT1] | 3.16 ± 0.33 | 3.27 ± 0.5 | – | –
80 | EKTNGATPLLMAARYGHLDMVEFL [FEM1C] | 2.91 ± 0.2 | 3.05 ± 0.37 | – | –
81 | ELAALLIERGASLEEVNDEGYTPL [ANKRD17] | 2.34 ± 0.29 | 2.78 ± 0.53 | – | –
82 | ELSKDAQASAAPAAPLPERNSLSA [SLC29A1] | 5.15 ± 0.12 | 5.05 ± 0.27 | – | –
83 | EMDWAQMACHRCLVYLGDLSRYQN [SMG5] | 2.36 ± 0.4 | 2.17 ± 0.18 | – | –
84 | EMLSASRYPTISMVKPLLHMLLNT [ZBED1] | 2.6 ± 0.81 | 3.02 ± 0.79 | – | –
85 | ENAPIGTLLLRLNATDPDEGTNGQ [PCDHGC5] | 4.95 ± 0.15 | 4.92 ± 0.18 | – | –
86 | ENIQDITVNIHRLHVKRSMGWKKA [ZMYND11] | 2.98 ± 0.26 | 3.22 ± 0.49 | – | –
87 | ENKPSTCSFSIERILGLDQKKDCV [HESX1] | 3.12 ± 0.49 | 3.42 ± 0.47 | – | –
88 | ENRELYIKTTLRELLVYIVFLVDI [PKD2L1] | 2.58 ± 0.87 | 2.57 ± 0.82 | – | –
89 | ENSGILQGKLIKRQRLAKNDRGDH [EFHC1] | 3.85 ± 0.32 | 4.37 ± 0.11 | – | –
